According to PMC8611056:

Legend:
[1] = target: human von Willebrand factor (human) (UniProt P04275); assay: ELISA; competition: wells coated with 1 μg of vWF, 1 μg of IsdB with or without 10 μg/well of each vWF ligand; detected with anti-IsdB IgG; percent of control without competitor
[2] = target: IsdB NEAT1 (aa residues 144-270) (S. aureus SH1000) (UniProt Q2FZF0); assay: SPR; Biacore X-100; 6xHis-IsdB proteins captured on Ni2+-NTA chip, A1 lacking the 6xHis tag as analyte (0.08 to 1.25 μM), single-cycle mode, 25 °C; heterogeneous ligand binding model (two ligand populations L1, L2); buffer PBS with 0.005% Tween 20 or HBS-EP+ (methods)
[3] = target: IsdB NEAT2 (aa residues 334-458) (S. aureus SH1000) (UniProt Q2FZF0); assay: as above
[4] = target: IsdB NEAT1-NEAT2 (aa residues 48-480) (S. aureus SH1000) (UniProt Q2FZF0); assay: as above
[5] = target: vWF on calcium ionophore-activated HUVEC monolayers (human (endogenous in HUVEC)); assay: bacterial adhesion to cell monolayers (ELISA-type); ionophore-treated HUVEC monolayers incubated for 1 h with S. aureus SH1000 WT or isdB mutant (with or without 250 ng/well mAb 6D1 or isotype control), or with L. lactis with pNZ8037::isdB or empty vector

collagen type IV (complex) was tested, and the reduction of IsdB NEAT1-NEAT2 binding to vWF at 10 μg/well [1] was 50%.
For “recombinant vWF A1 domain lacking the 6xHis tag (domain or fragment)”, the KD1 (ligand population L1) [2] was 53 µM, the KD2 (ligand population L2) [2] was 5.3 µM and the KD1 (ligand population L1) [3] was 0.3 µM. The KD2 (ligand population L2) [3] was 0.4 µM, the KD1 (ligand population L1) [4] was 1.7 µM and the KD2 (ligand population L2) [4] was 0.9 µM.
For “IsdB on S. aureus SH1000 cells (from UniProt Q2FZF0 41-613) (natural protein)”, the adhesion of wild-type cells over isdB mutant cells [5] was 3 times.
In the case of collagen type VI (complex), the reduction of IsdB NEAT1-NEAT2 binding to vWF at 10 μg/well [1] is reported as 50%.
